Measurements published in patent US20180319855A1, “GENETICALLY MUTATED AEQUORIN-BASED BIOSENSORS WITH EXTRA SENSITIVITY TO CALCIUM AND IMPROVED BIOLUMINESCENCE INTENSITY” (CENTRE NATIONAL DE LA RECHERCHE SCIENTIFIQUE (CNRS), priority 2015, published 2018).
Where “and” joins values, the source holds several entries; their conditions need not be identical. Equal entries are not always repeated.

Legend:
[1] = Ca2+ sensitivity curves of reconstituted photoproteins (L/Lmax vs free Ca2+); format: biochemical; details: for Relative intensity at pCa 6.5 / Relative intensity at pCa 7.2 / affinity to calcium group relative to Aeq-wt: CLZ-f; for Relative intensity at pCa 6.5 / Relative intensity at pCa 7.2: L/Lmax compared to Aeq-wt; for affinity to calcium group relative to Aeq-wt: at pCa 6.5, FIG. 2; for EC50: aequorin proteins reconstituted with CLZ-f, sigmoidal curve fit, mean ± SD, n at least 3, read-out: Calcium sensitivity, EC50
Description: For in vitro reconstitution, the purified and concentrated samples of apoaequorin and redquorin mutant proteins were buffer-exchanged to 50 mM Tris-HCl (pH 7.5), 150 mM NaCl, 10 mM EGTA, 5 mM ß-mercaptoethanol, supplemented with 5 μM CLZ-f or CLZ-native and incubated overnight at 4° C., in the dark. The next day, samples were passed through molecular weight cut-offs (AmiconUitra MWCO, 10K and 50K, from Millipore), then resuspended in Zero-Ca^2+ buffer (30 mM MOPS, 100 mM KCl and 10 mM EGTA, pH 7.2) for calcium affinity, emission decay kinetics and spectral analysis assays. As for in cellulo reconstitution, HEK cells transiently expressing the proteins of apoaequorin and aporedquorin mutants were washed twice with Hank's Balanced Salt Solution (HBSS) and incubated in the dark, with 4 μM of the desired CLZ diluted in OptiMEM I medium (Gibco), for 2-3h at 37° C. and 5% CO2. Cells were washed once and maintained in HBSS at 37° C. for 20 min before the experiment.
Functional Analysis of Aequorin Mutants and Fusions Ca^2+ Sensitivity Curves.
Purified and reconstituted samples with CLZ-f or CLZ-native already buffered-exchanged to zero-calcium buffer ensured to minimize calcium contamination that could interfere with the measurements. Fifteen microliter aliquot of photoprotein samples (concentration range, 50 to 90 ng/μl) was placed in a home-made luminometer and mixed with 300 μl solution containing the desired concentration of free-Ca^2+. The solutions of EGTA-buffered with varying free-Ca^2+ prepared according to the manufacturer instruction for the kit (Molecular Probes, Invitrogen). Integration of the luminescence emission (per second) was measured for 20 seconds (background) before injecting a solution with known [free-Ca^2+] and lasted until stable or decaying signal (at final-phase) was obtained. At this point, 400 μl of a saturating calcium solution (30 mM MOPS, 100 mM CaCl2, pH 7.2) was rapidly injected (less than 30 ms) and light integration continued until all aequorin had been consumed and light intensity had gone back to background signal. Luminescence intensity (L) at different [Ca^2+] was taken as the response peak value in case of decaying signal or as the stable value in case of stable emission. Lmax, was measured by integrating all remaining luminescence signal from that moment (L value) to the end of the experiment. The EC50 values were extracted from a sigmoidal dose-response fit (variable slope) using GraphPad Prism software.

[2] = Thermostability: relative bioluminescence activity after 30 min incubation; format: physicochemical; details: for Thermostability, luminescence activity relative to wt-aequorin: CLZ-f
Description: Thermostability of aequorin and redquorin mutant with increased affinity for calcium were compared to wt-aequorin (FIG. 5). The purified photoprotein samples were reconstituted with CLZ-f (as detailed earlier) and let to calibrate at room temperature (20-24° C.) for 20 min before taken the first measurement of total counts using saturating calcium solution (50 mM Tris-HCl, 100 mM CaCl2, pH 7.5). Samples were then incubated at two different temperatures (30 to 40° C.) for 30 min, and let equilibrate at room temperature for 15 minbefore taken the second measurement of total counts in the sample. The relative bioluminescence activity at each temperature was calculated by the ratio 2nd counts (at target T° C.)/1st counts (at initial T° C.) multiplied by 100.
Table 6 highlights the analysis of thermostability data obtained at two temperatures for aequorin and redquorin mutants, as well as CitA and GA. The values represent the degree of change in luminescence activity compared to wt-aeq, at each temperature. All values are relative to wt-aequorin (at each temperature) and were calculated by dividing the obtained data for each mutant/variant by the data for wt-aeq (as reference). The data were taken from FIG. 5.

B1: A123D: apoaequorin mutant, alanine 123 replaced by aspartic acid (SEQ ID NO:10) (protein)
chain: SKLTSDFDNPRWIGRHKHMFNFLDVNHNGKISLDEMVYKASDIVINNLGATPEQAKRHKDAVEAFFGGAGMKYGVETDWPAYIEGWKKLATDELEKYAKNEPTLIRIWGDALFDIVDKDQNGDITLDEWKAYTKAAGIIQSSEDCEETFRVCDIDESGQLDVDEMTRQHLGFWYTMDPACEKLYGGAVP
modifications: mutant aequorin
In the case of B1, the “Relative intensity at pCa 6.5” value [1] is reported as 3.6, the “Relative intensity at pCa 7.2” value [1] is reported as 1.6 and the “affinity to calcium group relative to Aeq-wt” value [1] is reported as “medium-high to high”. The EC50 [1] was 374 nM, the “Thermostability, luminescence activity relative to wt-aequorin” value ([2]; 30° C. for 30 min) was 0.82 and the “Thermostability, luminescence activity relative to wt-aequorin” value ([2]; 40° C. for 30 min) was 0.84. For the same molecule, the “less activity compared to wt-aeq (thermostability)” value ([2]; after incubation at 30 and 40° C.) was 19%.

B2: QT + AT: apoaequorin double mutant Q159T + A179T (SEQ ID NO:18) (protein)
chain: SKLTSDFDNPRWIGRHKHMFNFLDVNHNGKISLDEMVYKASDIVINNLGATPEQAKRHKDAVEAFFGGAGMKYGVETDWPAYIEGWKKLATDELEKYAKNEPTLIRIWGDALFDIVDKDQNGAITLDEWKAYTKAAGIIQSSEDCEETFRVCDIDESGTLDVDEMTRQHLGFWYTMDPTCEKLYGGAVP
modifications: mutant aequorin
For B2, the “Relative intensity at pCa 6.5” value [1] was 29.0, the “Relative intensity at pCa 7.2” value [1] was 14.0 and the EC50 [1] was 281 ± 25 nM.

B3: QT + ND: apoaequorin double mutant Q159T + N121D (SEQ ID NO:14) (protein)
chain: SKLTSDFDNPRWIGRHKHMFNFLDVNHNGKISLDEMVYKASDIVINNLGATPEQAKRHKDAVEAFFGGAGMKYGVETDWPAYIEGWKKLATDELEKYAKNEPTLIRIWGDALFDIVDKDQDGAITLDEWKAYTKAAGIIQSSEDCEETFRVCDIDESGTLDVDEMTRQHLGFWYTMDPACEKLYGGAVP
modifications: mutant aequorin
In the case of B3, the “Relative intensity at pCa 6.5” value [1] is reported as 14.4, the “Relative intensity at pCa 7.2” value [1] is reported as 12.2 and the EC50 [1] is reported as 337 ± 10 nM.

B4: Q159T: apoaequorin mutant, glutamine 159 replaced by threonine (SEQ ID NO:6) (protein)
chain: SKLTSDFDNPRWIGRHKHMFNFLDVNHNGKISLDEMVYKASDIVINNLGATPEQAKRHKDAVEAFFGGAGMKYGVETDWPAYIEGWKKLATDELEKYAKNEPTLIRIWGDALFDIVDKDQNGAITLDEWKAYTKAAGIIQSSEDCEETFRVCDIDESGTLDVDEMTRQHLGFWYTMDPACEKLYGGAVP
modifications: mutant aequorin
With B4 the “Relative intensity at pCa 6.5” value [1] was 16 and 16.6, the “Relative intensity at pCa 7.2” value [1] was 4.8 and the “affinity to calcium group relative to Aeq-wt” value [1] was “medium-high to high”. The EC50 [1] was 249 ± 13 nM, the “Thermostability, luminescence activity relative to wt-aequorin” value ([2]; 30° C. for 30 min) was 0.92 and the “Thermostability, luminescence activity relative to wt-aequorin” value ([2]; 40° C. for 30 min) was 0.96.

B5: QT + AD: apoaequorin double mutant Q159T + A123D (SEQ ID NO:16) (protein)
chain: SKLTSDFDNPRWIGRHKHMFNFLDVNHNGKISLDEMVYKASDIVINNLGATPEQAKRHKDAVEAFFGGAGMKYGVETDWPAYIEGWKKLATDELEKYAKNEPTLIRIWGDALFDIVDKDQNGDITLDEWKAYTKAAGIIQSSEDCEETFRVCDIDESGTLDVDEMTRQHLGFWYTMDPACEKLYGGAVP
modifications: mutant aequorin
In the case of B5, the “Relative intensity at pCa 6.5” value [1] is reported as 22.8, the “Relative intensity at pCa 7.2” value [1] is reported as 10.0 and the EC50 [1] is reported as 279 nM.

B6: A179T: apoaequorin mutant, alanine 179 replaced by threonine (SEQ ID NO:11) (protein)
chain: SKLTSDFDNPRWIGRHKHMFNFLDVNHNGKISLDEMVYKASDIVINNLGATPEQAKRHKDAVEAFFGGAGMKYGVETDWPAYIEGWKKLATDELEKYAKNEPTLIRIWGDALFDIVDKDQNGAITLDEWKAYTKAAGIIQSSEDCEETFRVCDIDESGQLDVDEMTRQHLGFWYTMDPTCEKLYGGAVP
modifications: mutant aequorin
In the case of B6, the “Relative intensity at pCa 6.5” value [1] is reported as 3.0, the “Relative intensity at pCa 7.2” value [1] is reported as 1.3 and the “affinity to calcium group relative to Aeq-wt” value [1] is reported as “medium-high to high”. For the same molecule, the EC50 [1] was 330 nM, the “Thermostability, luminescence activity relative to wt-aequorin” value ([2]; 30° C. for 30 min) was 0.96 and the “Thermostability, luminescence activity relative to wt-aequorin” value ([2]; 40° C. for 30 min) was 1.02.

B7: S157A: aequorin single mutant S157A, low calcium affinity (protein)
chain: SKLTSDFDNPRWIGRHKHMFNFLDVNHNGKISLDEMVYKASDIVINNLGATPEQAKRHKDAVEAFFGGAGMKYGVETDWPAYIEGWKKLATDELEKYAKNEPTLIRIWGDALFDIVDKDQNGAITLDEWKAYTKAAGIIQSSEDCEETFRVCDIDEAGQLDVDEMTRQHLGFWYTMDPACEKLYGGAVP
In the case of B7, the “affinity to calcium group relative to Aeq-wt” value [1] is reported as “low”.

B8: Q159E: apoaequorin mutant, glutamine 159 replaced by glutamic acid (SEQ ID NO:8) (protein)
chain: SKLTSDFDNPRWIGRHKHMFNFLDVNHNGKISLDEMVYKASDIVINNLGATPEQAKRHKDAVEAFFGGAGMKYGVETDWPAYIEGWKKLATDELEKYAKNEPTLIRIWGDALFDIVDKDQNGAITLDEWKAYTKAAGIIQSSEDCEETFRVCDIDESGELDVDEMTRQHLGFWYTMDPACEKLYGGAVP
modifications: mutant aequorin
For B8, the “Thermostability, luminescence activity relative to wt-aequorin” value ([2]; 30° C. for 30 min) was 0.89 and the “Thermostability, luminescence activity relative to wt-aequorin” value ([2]; 40° C. for 30 min) was 0.94.

B9: Q159D: apoaequorin mutant, glutamine 159 replaced by aspartic acid (SEQ ID NO:5) (protein)
chain: SKLTSDFDNPRWIGRHKHMFNFLDVNHNGKISLDEMVYKASDIVINNLGATPEQAKRHKDAVEAFFGGAGMKYGVETDWPAYIEGWKKLATDELEKYAKNEPTLIRIWGDALFDIVDKDQNGAITLDEWKAYTKAAGIIQSSEDCEETFRVCDIDESGDLDVDEMTRQHLGFWYTMDPACEKLYGGAVP
modifications: mutant aequorin
In the case of B9, the “Relative intensity at pCa 6.5” value [1] is reported as 25 and 25.1, the “affinity to calcium group relative to Aeq-wt” value [1] is reported as “medium-high to high and high” and the EC50 [1] is reported as 330 nM. For the same molecule, the “Thermostability, luminescence activity relative to wt-aequorin” value ([2]; 30° C. for 30 min) was 0.95 and the “Thermostability, luminescence activity relative to wt-aequorin” value ([2]; 40° C. for 30 min) was 1.00.

B10: Q140R: aequorin single mutant Q140R, low calcium affinity (protein)
chain: SKLTSDFDNPRWIGRHKHMFNFLDVNHNGKISLDEMVYKASDIVINNLGATPEQAKRHKDAVEAFFGGAGMKYGVETDWPAYIEGWKKLATDELEKYAKNEPTLIRIWGDALFDIVDKDQNGAITLDEWKAYTKAAGIIRSSEDCEETFRVCDIDESGQLDVDEMTRQHLGFWYTMDPACEKLYGGAVP
With B10 the “affinity to calcium group relative to Aeq-wt” value [1] was “low”.

B11: S157T: aequorin single mutant S157T, medium-low calcium affinity (protein)
chain: SKLTSDFDNPRWIGRHKHMFNFLDVNHNGKISLDEMVYKASDIVINNLGATPEQAKRHKDAVEAFFGGAGMKYGVETDWPAYIEGWKKLATDELEKYAKNEPTLIRIWGDALFDIVDKDQNGAITLDEWKAYTKAAGIIQSSEDCEETFRVCDIDETGQLDVDEMTRQHLGFWYTMDPACEKLYGGAVP
With B11 the “affinity to calcium group relative to Aeq-wt” value [1] was “medium-low”.
